The record followed here is patent US20230124851A1 (INHIBRX LNC, published 2023).

Test [1] concerns the target T1, CD3 on the surface of human T cells (human, UniProt P07766 23-207).
T1 construct: whole, on cells; Part of the CD3/TCR complex on cells; also called CD3 epsilon
As to the kind of experiment: flow cytometry on primary human T cells, anti-human IgG APC secondary. How it is done: (§1) Binding of exemplary B7H3-targeting constrained CD3 engaging constructs set forth in Table E3 to CD3 on the surface of primary T cells or B7H3-expressing cells (A375) was assessed by flow cytometry. The T cells were primary T-cells that were negatively enriched from PBMCs isolated from healthy human donor peripheral blood leukopaks. Bound construct was detected with fluorophore-conjugated secondary antibodies specific for the human Fc (anti-human IgG APC secondary antibody) and binding was measured by flow cytometry. Cells incubated with secondary antibody only served as negative controls. Binding was compared to Dual-affinity Re-targeting Antibody (DART)-monomeric Fc format targeting B7H3 and CD3 (DART-Fc B7H3xCD3; see e.g. WO2017030926A1).
In general terms: In flow cytometry, cells or beads pass a laser one at a time.

Test [2] has as its target T2, human B7H3 (CD276) on the cell surface (human, UniProt Q5ZPR3 29-534).
T2 construct: B7H3 on A375 and other B7H3-positive or transfected cells
T2 sequence: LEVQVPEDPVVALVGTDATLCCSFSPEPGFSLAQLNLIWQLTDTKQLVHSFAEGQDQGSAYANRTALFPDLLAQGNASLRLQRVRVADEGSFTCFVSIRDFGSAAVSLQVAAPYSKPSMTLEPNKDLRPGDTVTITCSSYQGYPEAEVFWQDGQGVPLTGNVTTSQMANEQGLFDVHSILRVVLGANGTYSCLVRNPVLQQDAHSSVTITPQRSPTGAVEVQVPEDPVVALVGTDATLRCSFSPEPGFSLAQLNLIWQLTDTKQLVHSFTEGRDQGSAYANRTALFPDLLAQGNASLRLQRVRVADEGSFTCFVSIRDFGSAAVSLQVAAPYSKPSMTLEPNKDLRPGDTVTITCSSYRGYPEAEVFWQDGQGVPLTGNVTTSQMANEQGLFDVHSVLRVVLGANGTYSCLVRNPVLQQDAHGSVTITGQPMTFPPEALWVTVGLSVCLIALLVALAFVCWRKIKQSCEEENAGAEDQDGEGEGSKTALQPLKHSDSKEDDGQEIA
As to the kind of experiment: flow cytometry on A375 cells (B7H3+), anti-human IgG APC secondary. How it is done:
as §1

T1 sequence (P07766 23-207): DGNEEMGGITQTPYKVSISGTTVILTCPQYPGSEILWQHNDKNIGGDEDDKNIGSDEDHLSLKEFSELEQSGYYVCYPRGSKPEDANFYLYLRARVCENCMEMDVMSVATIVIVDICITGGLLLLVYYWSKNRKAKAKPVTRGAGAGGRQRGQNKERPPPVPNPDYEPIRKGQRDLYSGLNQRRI

B1: cx2846 (bispecific antibody, not shown: a dimerising Fc or GST)
chain 1: EVQLVESGGGEVQPGGSLRLSCAASGSTFSSYHMSWFRQAPGKQREPVATSHHGGTTNYAGSVKGRFTISRDNAKNTVYLQMNTLRAEDTAVYYCKADHGYQGRGYWGQGTLVTVKPGGSGGGGIEPDIGGSGGSEVQLVESGGGLVQPGGSLRLSCAASGFTFNTYAMNWVRQAPGKCLEWVARIRSKYNNYATYYADSVKGRFTISRDDAKNTLYLQMSSLRAEDTAVYYCVRHGNFGNSYVSWFAYWGQGTLVTVKPEVQLVESGGGEVQPGGSLRLSCAPSERTFSTYTMGWFRQAPGKEREFVAVVNWGGGSKYYAESVKGRFTISRDNAKNTVYLQMSSLRAEDTAVYYCAAGGAYSGPYYDTRQYTYWGQGTLVTVKP
chain 2: GGSGGGGIEPDIGGSGGSQAVVTQEPSLTVSPGGTVTLTCGSSTGAVTTSNYANWVQQKPGQAFRGLIGGTNKRAPGVPARFSGSLLGGKAALTISGAQPEDEADYYCALWYSNHWVFGCGTKLTVL
For the molecule B1, the binding result in test [1] is listed as “no binding (tested: 200 nM)”.

B2: cx3960 (bispecific antibody, not shown: a dimerising Fc or GST)
chain 1: EVQLVESGGGEVQPGGSLRLSCAASGSTFSSYHMSWFRQAPGKQREPVATSHHGGTTNYAGSVKGRFTISRDNAKNTVYLQMNTLRAEDTAVYYCKADHGYQGRGYWGQGTLVTVKPGGSGGGGIEPDIGGSGGSEVQLVESGGGLVQPGGSLRLSCAASGFTFNTYAMNWVRQAPGKCLEWVARIRSKYNNYATYYADSVKGRFTISRDDAKNTLYLQMSSLRAEDTAVYYCVRHGNFGNSYVSWFAYWGQGTLVTVKPQLQLQESGGGLVQAGDSLRLSCAASGFSFGSNVMMWVRQAPGKGPEWVSTIYSSGTGTFYADSVKGRFTISRNNAKNTLYLQMNSLKPDDTAVYYCATSGPVRGWGPRSQGTLVTVKP
chain 2: GGSGGGGIEPDIGGSGGSQAVVTQEPSLTVSPGGTVTLTCGSSTGAVTTSNYANWVQQKPGQAFRGLIGGTNKRAPGVPARFSGSLLGGKAALTISGAQPEDEADYYCALWYSNHWVFGCGTKLTVL
On to B2, for which the binding result in test [1] is recorded as “no binding (tested: 200 nM)”.

B3: cx4908 (bispecific antibody)
chain 1: EVQLVESGGGEVQPGGSLRLSCAASGSTFSSYHMSWFRQAPGKQREPVATSHHGGTTNYAGSVKGRFTISRDNAKNTVYLQMNTLRAEDTAVYYCKADHGYQGRGYWGQGTLVTVKPDKTHTCPPCPAPGGPSVFLFPPKPKDTLMISRTPEVTCVVVDVSHEDPEVKFNWYVDGVEVHNAKTKPREEQYNSTYRVVSVLTVLHQDWLNGKEYKCKVSNKALPAPIEKTISKAKGQPREPQVYTLPPCRDELTKNQVSLWCLVKGFYPSDIAVEWESNGQPENNYKTTPPVLDSDGSFFLYSKLTVDKSRWQQGNVFSCSVMHEALHNHYTQKSLSLSPTGGSGGGGIEPDIGGSGGSEVQLVESGGGLVQPGGSLRLSCAASGFTFNTYAMNWVRQAPGKCLEWVARIRSKYNNYATYYADSVKGRFTISRDDAKNTLYLQMSSLRAEDTAVYYCVRHGNFGNSYVSWFAYWGQGTLVTVKPEVQLVESGGGEVQPGGSLRLSCAASGFSFGSNVMMWVRQAPGKGPEWVSTIYSSGTGTFYAESVKGRFTISRDNAKNTLYLQMSSLRAEDTAVYYCATSGPVRGWGPWSQGTLVTVKP
chain 2: DKTHTCPPCPAPGGPSVFLFPPKPKDTLMISRTPEVTCVVVDVSHEDPEVKFNWYVDGVEVHNAKTKPREEQYNSTYRVVSVLTVLHQDWLNGKEYKCKVSNKALPAPIEKTISKAKGQPREPQVCTLPPSRDELTKNQVSLSCAVKGFYPSDIAVEWESNGQPENNYKTTPPVLDSDGSFFLVSKLTVDKSRWQQGNVFSCSVMHEALHNRYTQKSLSLSPTGGSGGGGIEPDIGGSGGSQAVVTQEPSLTVSPGGTVTLTCGSSTGAVTTSNYANWVQQKPGQAFRGLIGGTNKRAPGVPARFSGSLLGGKAALTISGAQPEDEADYYCALWYSNHWVFGCGTKLTVLEVQLLESGGGEVQPGGSLRLSCAASGFSFSINAMGWYRQAPGKRREFVAAIESGRNTVYAESVKGRFTISRDNAKNTVYLQMSSLRAEDTAVYYCGLLKGNRVVSPSVAYWGQGTLVTVKP
notes: chain 2 ends in the 4-1BB sdAb RH3v5-1
Consider B3, for which the binding result in test [1] is “no binding (tested: 200 nM)”.

B4: DART-Fc B7H3xCD3 (bispecific antibody)
chain 1: DIQLTQSPSFLSASVGDRVTITCKASQNVDTNVAWYQQKPGKAPKALIYSASYRYSGVPSRFSGSGSGTDFTLTISSLQPEDFATYYCQQYNNYPFTFGQGTKLEIKGGGSGGGGEVQLVESGGGLVQPGGSLRLSCAASGFTFSTYAMNWVRQAPGKGLEWVGRIRSKYNNYATYYADSVKDRFTISRDDSKNSLYLQMNSLKTEDTAVYYCVRHGNFGNSYVSWFAYWGQGTLVTVSSGGCGGGEVAALEKEVAALEKEVAALEKEVAALEKGGGDKTHTCPPCPAPEAAGGPSVFLFPPKPKDTLMISRTPEVTCVVVDVSHEDPEVKFNWYVDGVEVHNAKTKPREEQYNSTYRVVSVLTVLHQDWLNGKEYKCKVSNKALPAPIEKTISKAKGQPREPQVYTLPPSREEMTKNQVSLWCLVKGFYPSDIAVEWESNGQPENNYKTTPPVLDSDGSFFLYSKLTVDKSRWQQGNVFSCSVMHEALHNHYTQKSLSLSPGK
chain 2: QAVVTQEPSLTVSPGGTVTLTCRSSTGAVTTSNYANWVQQKPGQAPRGLIGGTNKRAPWTPARFSGSLLGGKAALTITGAQAEDEADYYCALWYSNLWVFGGGTKLTVLGGGGSGGGGEVQLVESGGGLVQPGGSLRLSCAASGFTFSSFGMHWVRQAPGKGLEWVAYISSDSSAIYYADTVKGRFTISRDNAKNSLYLQMNSLRDEDTAVYYCGRGRENIYYGSRLDYWGQGTTVTVSSGGCGGGKVAALKEKVAALKEKVAALKEKVAALKE
chain 3: not shown
notes: Comparator, an analog of the format of WO2017030926A1; three polypeptide chains; also called B7H3xCD3 DART-Fc
B4: the binding result in test [2] is on record as “binds”.
